The assay concerns the target human neonatal Fc receptor (FcRn) (human) (UniProt P55899). The assay is described as follows: BLI; Octet; biotinylated human FcRn on streptavidin-coated biosensors, antibody soluble; equilibrium binding; PBSA pH 5.6; tips regenerated in PBSA pH 7.4. (In general: Biolayer interferometry detects binding as a change in optical thickness at a sensor tip.)

B1: F5111 antibody, wild type (hIgG1 lambda) (antibody, V domains shown)
VH: QLQLQESGPGLVKPSQTLSLTCTVSGGSISSGGYYWSWIRQHPGKGLEWIGYIYYSGSTYYNPSLKSRVTISVDTSKNQFSLKLSSVTAADTAVYYCARTPTVTGDWFDPWGRGTLVTVSS
VL: NFMLTQPHSVSESPGKTVTISCTRSSGSIASNYVQWYQQRPGSSPTTVIYEDNQRPSGVPDRFSGSIDSSSNSASLTISGLKTEDEADYYCQSYDSSNVVFGGGTKLTVL
In general, Kd refers to the equilibrium constant for the complex coming apart. A higher Kd goes with lower affinity. B1 had a Kd of 107 nM.

Values taken from PMC11697773.
